Experiments:
POPDC1-VC155 (human) = POPDC1-VC155 (human) (UniProt Q8NE79); test: split reporter (BiFC, NanoBiT); BiFC in HEK293 cells, split Venus VC155 on POPDC1 and VN155 on POPDC2; Venus signal normalised to co-transfected mRFP and to the wild-type pair (set to 1); settings: scale: relative to the wild-type pair
POPDC1 p.S201F-VC155 = target: T1, POPDC1 p.S201F-VC155 (human, UniProt Q8NE79 1-360, p.S201F); test: as above; settings: partners not purified
T1 construct: POPDC1 (BVES), human, full-length cDNA with the patient variant p.S201F; source: HEK293, transfected, in cells; not shown: split Venus VC155, C-terminal, kept
T1 sequence (looked up): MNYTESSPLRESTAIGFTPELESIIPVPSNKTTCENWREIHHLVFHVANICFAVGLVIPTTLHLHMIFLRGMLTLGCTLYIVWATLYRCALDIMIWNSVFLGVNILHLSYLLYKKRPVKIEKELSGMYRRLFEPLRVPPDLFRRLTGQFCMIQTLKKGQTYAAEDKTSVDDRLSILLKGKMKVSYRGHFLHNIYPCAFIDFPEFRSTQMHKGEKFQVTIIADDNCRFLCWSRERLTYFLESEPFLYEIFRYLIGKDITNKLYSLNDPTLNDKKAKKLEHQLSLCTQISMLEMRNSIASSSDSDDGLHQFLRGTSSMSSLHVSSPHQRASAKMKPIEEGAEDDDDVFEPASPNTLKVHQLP

[1] = target: POPDC1 p.Q153X-VC155 (human) (UniProt Q8NE79); test: as above; settings: scale: relative to the wild-type pair
[2] = target: the molecule itself; test: SDS-PAGE and Western blot of oligomer bands; COS-7 cells lysed in 4 M urea and 10% SDS without a reducing agent; anti-GFP antibody detects complexes that hold POPDC1-CFP
[3] = target: the molecule itself; test: FRET or BRET; type-1 quantitative NanoBRET in HEK293 cells; C-terminal NanoLuc and HaloTag (HaloTag-618 dye); expression ratios varied at constant total expression; curves compared to ideal curves for monomers, dimers and other stoichiometries

## POPDC2 p.W188X-VN155 (from UniProt Q9HBU9 1-187) (domain or fragment)
POPDC1-VC155 (human)
  BiFC signal relative to the wild-type pair: 0.59

B1: POPDC2-VN155 (natural protein, human, UniProt Q9HBU9 1-364, looked up)
chain: MSANSSRVGQLLLQGSACIRWKQDVEGAVYHLANCLLLLGFMGGSGVYGCFYLFGFLSAGYLCCVLWGWFSACGLDIVLWSFLLAVVCLLQLAHLVYRLREDTLPEEFDLLYKTLCLPLQVPLQTYKEIVHCCEEQVLTLATEQTYAVEGETPINRLSLLLSGRVRVSQDGQFLHYIFPYQFMDSPEWESLQPSEEGVFQVTLTAETSCSYISWPRKSLHLLLTKERYISCLFSALLGYDISEKLYTLNDKLFAKFGLRFDIRLPSLYHVLGPTAADAGPESEKGDEEVCEPAVSPPQATPTSLQQTPPCSTPPATTNFPAPPTRARLSRPDSGILASRIPLQSYSQVISRGQAPLAPTHTPEL
notes: POPDC2, human, full-length wild-type cDNA; also called wild-type POPDC2 with split Venus VN155; source: HEK293, transfected, in cells; not shown: split Venus VN155, C-terminal, kept
POPDC1 p.S201F-VC155
  BiFC signal relative to the wild-type pair: 0.43 relative to the wild-type pair (set to 1)
[1]
  BiFC signal relative to the wild-type pair: 0.248

B2: POPDC1-CFP (natural protein, human, UniProt Q8NE79 1-360, looked up)
chain: MNYTESSPLRESTAIGFTPELESIIPVPSNKTTCENWREIHHLVFHVANICFAVGLVIPTTLHLHMIFLRGMLTLGCTLYIVWATLYRCALDIMIWNSVFLGVNILHLSYLLYKKRPVKIEKELSGMYRRLFEPLRVPPDLFRRLTGQFCMIQTLKKGQTYAAEDKTSVDDRLSILLKGKMKVSYRGHFLHNIYPCAFIDSPEFRSTQMHKGEKFQVTIIADDNCRFLCWSRERLTYFLESEPFLYEIFRYLIGKDITNKLYSLNDPTLNDKKAKKLEHQLSLCTQISMLEMRNSIASSSDSDDGLHQFLRGTSSMSSLHVSSPHQRASAKMKPIEEGAEDDDDVFEPASPNTLKVHQLP
notes: POPDC1 (BVES), human, full length cDNA in pECFP-N1; printed molecular weight of POPDC1 41.5 kDa; also called POPDC1-ECFP; source: COS-7, transfected, in lysate (4 M urea, 10% SDS, no reducing agent); not shown: CFP, C-terminal, kept
[2]
  stoichiometry N: 2

B3: POPDC1 with C-terminal NanoLuc or HaloTag (NanoBRET constructs) (natural protein, human, UniProt Q8NE79 1-360, looked up)
chain: MNYTESSPLRESTAIGFTPELESIIPVPSNKTTCENWREIHHLVFHVANICFAVGLVIPTTLHLHMIFLRGMLTLGCTLYIVWATLYRCALDIMIWNSVFLGVNILHLSYLLYKKRPVKIEKELSGMYRRLFEPLRVPPDLFRRLTGQFCMIQTLKKGQTYAAEDKTSVDDRLSILLKGKMKVSYRGHFLHNIYPCAFIDSPEFRSTQMHKGEKFQVTIIADDNCRFLCWSRERLTYFLESEPFLYEIFRYLIGKDITNKLYSLNDPTLNDKKAKKLEHQLSLCTQISMLEMRNSIASSSDSDDGLHQFLRGTSSMSSLHVSSPHQRASAKMKPIEEGAEDDDDVFEPASPNTLKVHQLP
modifications: HaloTag-618 dye on the HaloTag copy
notes: POPDC1 (BVES), human cDNA cloned into pFC14K (HaloTag) or pFC32K (NanoLuc); Two differently tagged copies of one protein, written as one molecule: each copy carries only one of the two tags; With POPDC2-NL the HaloTag copy was used; also called POPDC1-NL; POPDC1-HT; source: HEK293, transiently transfected, in live cells; not shown: NanoLuc (on the copy POPDC1-NL), C-terminal, kept; HaloTag (on …)
[3]
  stoichiometry N: 2

Reference: article PMC9830914, “Differential effects of mutations of POPDC proteins on heteromeric interaction and membrane trafficking” (Acta Neuropathologica Communications, 2023)
